B1: hnRNPA1-B low-complexity domain (domain or fragment, UniProt P09651 186-372, looked up)
chain: MASASSSQRGRSGSGNFGGGRGGGFGGNDNFGRGGNFSGRGGFGGSRGGGGYGGSGDGYNGFGNDGGYGGGGPGYSGGSRGYGSGGQGYGNQGSGYGGSGSYDSYNNGGGGGFGGGSGSNFGGGGSYNDFGNYNNQSSNFGPMKGGNFGGRSSGPYGGGGQYFAKPRNQGGYGGSSSSSSYGSGRRF
notes: C-terminal low-complexity domain of heterogeneous nuclear ribonucleoprotein A1, splicing variant hnRNPA1-B (52 amino acids more than hnRNPA1-A); 19.8 kDa; also called B-LCD; hnRNPA1–B-LCD; source: E. coli BL21-Gold (DE3), purified (Ni-NTA, SEC on Superdex 75 in 2 M urea)
B2: hnRNPA1-A low-complexity domain (domain or fragment, UniProt P09651 186-250, looked up)
chain: MASASSSQRGRSGSGNFGGGRGGGFGGNDNFGRGGNFSGRGGFGGSRGGGGYGGSGDGYNGFGNDGSNFGGGGSYNDFGNYNNQSSNFGPMKGGNFGGRSSGPYGGGGQYFAKPRNQGGYGGSSSSSSYGSGRRF
notes: 15.2 kDa; The two stretches joined are the natural splice variant; also called A-LCD; hnRNPA1–A-LCD; source: E. coli BL21-Gold (DE3), purified (Ni-NTA, SEC on Superdex 75 in 8 M urea)

Target: the molecule itself
Assay: ThT fluorescence kinetics + AFM + TEM + Raman spectroscopy (amyloid fibril formation); self-association into amyloid fibrils starting from condensates; 30 µM protein in 50 mM Tris pH 7.5, 200 mM NaCl, 2 mM β-mercaptoethanol, 20 µM ThT, 384-well plates; re-scan confocal images after ~70 h

| Protein | binding result |
| --- | --- |
| B1 | binds |
| B2 | binds |

— article PMC10533390, “The interface of condensates of the hnRNPA1 low-complexity domain promotes formation of amyloid fibrils” (Nature Chemistry, 2023)
